Measurements from patent US20040076958.

T1: AA21 synthetic peptide (N21 with two conserved glycines replaced by alanine)
T1 chain: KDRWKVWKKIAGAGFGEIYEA


Assays:
[1] = molecular target: recombinant human tau (1-441), full length tau, P10636
[2] = molecular target: T1, AA21 synthetic peptide (N21 with two …)

recombinant human tau (1-441), full length tau, P10636, sequence (P10636 whole entry, looked up, tested part not stated): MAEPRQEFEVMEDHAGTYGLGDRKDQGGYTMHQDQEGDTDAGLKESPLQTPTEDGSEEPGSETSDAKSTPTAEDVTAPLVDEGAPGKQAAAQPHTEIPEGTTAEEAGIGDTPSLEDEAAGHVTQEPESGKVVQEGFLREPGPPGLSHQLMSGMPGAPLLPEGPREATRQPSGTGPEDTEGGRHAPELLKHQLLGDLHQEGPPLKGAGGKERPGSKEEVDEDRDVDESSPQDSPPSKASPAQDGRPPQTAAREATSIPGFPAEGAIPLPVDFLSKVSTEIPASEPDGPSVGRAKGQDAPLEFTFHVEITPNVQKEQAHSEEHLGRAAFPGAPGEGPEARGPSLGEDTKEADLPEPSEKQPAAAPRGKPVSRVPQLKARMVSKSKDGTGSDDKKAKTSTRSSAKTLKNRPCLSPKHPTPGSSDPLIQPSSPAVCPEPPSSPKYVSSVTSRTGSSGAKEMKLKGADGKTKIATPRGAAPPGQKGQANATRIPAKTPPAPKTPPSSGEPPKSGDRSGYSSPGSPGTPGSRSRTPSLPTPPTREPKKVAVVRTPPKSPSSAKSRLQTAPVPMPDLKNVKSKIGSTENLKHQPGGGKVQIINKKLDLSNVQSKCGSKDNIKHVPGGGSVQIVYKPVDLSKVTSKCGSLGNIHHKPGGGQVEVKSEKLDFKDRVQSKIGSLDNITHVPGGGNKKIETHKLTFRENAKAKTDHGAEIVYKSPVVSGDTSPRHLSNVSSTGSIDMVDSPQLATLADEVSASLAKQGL

| Protein | tau phosphorylation in vitro ([gamma-32P]ATP, SDS-PAGE, autoradiography) [1] | time at which tau phosphorylation was saturated, pH 6.5 [1] | time at which tau phosphorylation was saturated, pH 7.5 [1] | BDTK phosphorylation and tau phosphorylation in vitro (AA21-BDTK, AA21-tau) [2] | tau phosphorylation [1] |
| --- | --- | --- | --- | --- | --- |
| His-tagged BDTK(38-319), BDTK kinase domain (protein) KKIGGGGFGEIYEAMDLLTRENVALKVESAQQPKQVLKMEVAVLKKLQGKDHVCRFIGCGRNEKFNYVVMQLQGRNLADLRRSQPRGTFTLSTTLRLGKQILESIEAIHSVGFLHRDIKPSNFAMGRLPSTYRKCYMLDFGLARQYTNTTGDVRPPRNVAGFRGTVRYASVNAHKNREMGRHDDLWSLFYMLVEFAVGQLPWRKIKDKEQVGMIKEKYEHRMLLKHMPSEFHLFLDHIASLDYFTKPDYQLIMSVFENSMKERGIAENEAFDWEKAGTDALL | did phosphorylate tau protein as well as BDTK itself | 120 min at pH 6.5 | tau phosphorylation was saturated at 60 min at pH 7.5 | – | – |
| Brain Derived Tau Kinase (BDTK) (protein) MQCLAAALKDETNMSGGGEQADILPANYVVKDRWKVVKKIGGGGFGEIYEAMDLLTRENVALKVESAQQPKQVLKMEVAVLKKLQGKDHVCRFIGCGRNEKFNYVVMQLQGRNLADLRRSQPRGTFTLSTTLRLGKQILESIEAIHSVGFLHRDIKPSNFAMGRLPSTYRKCYMLDFGLARQYTNTTGDVRPPRNVAGFRGTVRYASVNAHKNREMGRHDDLWSLFYMLVEFAVGQLPWRKIKDKEQVGMIKEKYEHRMLLKHMPSEFHLFLDHIASLDYFTKPDYQLIMSVFENSMKERGIAENEAFDWEKAGTDALLSTSTSTPPQQNTRQTAAMFGVVNVTPVPGDLLRENTEDVLQGEHLSDQENAPPILPGRPSEGLGPSPHLVPHPGGPEAEVWEETDVNRNKLRINIGKSPCVEEEQSRGMGVPSSPVRAPPDSPTTPVRSLRYRRVNSPESERLSTADGRVELPERRSRMDLPGSPSRQACSSQPAQMLSVDTGHADRQASGRMDVSASVEQEALSNAFRSVPLAEEEDFDSKEWVIIDKETELKDFPPGAEPSTSGTTDEEPEELRPLPEEGEERRRLGAEPTVRPRGRSMQALAEEDLQHLPPQPLPPQLSQGDGRSETSQPPTPGSPSHSPLHSGPRPRRRESDPTGPQRQVFSVAPPFEVNGLPRAVPLSLPYQDFKRDLSDYRERARLLNRVRRVGFSHMLLTTPQVPLAPVQPQANGKEEEEEEEEDEEEEEEDEEEEEEEEEEEEEEEEEEEEEEEAAAAVALGEVLGPRSGSSSEGSERSTDRSQEGAPSTLLADDQKESRGRASMADGDLEPEEGSKTLVLVSPGDMKKSPVTAELAPDPDLGTLAALTPQHERPQPTGSQLDVSEPGTLSSVLKSEPKPPGPGAGLGAGTVTTGVGGVAVTSSPFTKVERTFVHIAEKTHLNVMSSGGQALRSEEFSAGGELGLELASDGGAVEEGARAPLENGLALSGLNGAEIEGSALSGAPRETPSEMATNSLPNGPALADGPAPVSPLEPSPEKVATISPRRHAMPGSRPRSRIPVLLSEEDTGSEPSGSLSAKERWSKRARPQQDLARLVMEKRQGRLLLRLASGASSSSSEEQRRASETLSGTGSEEDTPASEPAAALPRKSGRAAATRSRIPRPIGLRMPMPVAAQQPASRSHGAAPALDTAITSRLQLQTPPGSATAADLRPKQPPGRGLGPGRAQAGARPPAPRSPRLPASTSAARNASASPRSQSLRRESPSPSHQARPGVPPPRGVPPARAQPDGTPSPGGSKKGPRGKLQAQRATTKGRAGGAEGRAGAR | – | – | – | AA21 mutated peptide rather increased both BDTK (AA21-BDTK, from 30 to 300 )µM) and tau phosphorylation (AA21-tau, from 30 µM to 1 µM) in dose response manner | Full length BDTK (SEQ ID NO:1), and isolated BDTK kinase domain (amino acids 38-319, SEQ ID NO:4) are able to phosphorylate tau |
